In this test the target is T1, α5β1-integrin/uPAR complex (Homo sapiens, UniProt P05556+P08648).
T1 construct: endogenous in cells; host or cells: T-HEp3 (human epidermoid carcinoma) cell lysate
As to the kind of experiment: Disruption of preformed uPAR/α5β1-integrin complex (co-immunoprecipitation). The note with it: cell lysates incubated with 20 μM peptide, 20 min at 4° C., pull-down with anti-α5β1 (HA5). The format is biochemical. As to the method:
FIGS. 5A-B show the physical interaction between uPAR and α5β1-integrin. […] D-HEp3 cells were transfected with vector (pcDNA3.1) alone or with constructs expressing uPAR^wt or uPAR^S245A and after 48 hrs the cells were surface biotinylated and lysed as described in the Examples. Half of each lysate (0.8 mg of protein) was immunoprecipitated with 5 μg monoclonal anti-uPAR(R3) antibody and half with 5 μg monoclonal anti-α5β1-integrin (HA5) antibody. Isotype-matched IgG served as negative control. The immunoprecipitates were separated on an SDS-PAGE and the bands were detected with streptavidin-HRP conjugate and ECL. […] The numbers represent uPAR precipitated by anti-α5β1 antibody as percent of total uPAR. The experiment was repeated 5 times using the same and additional anti-integrin and anti-uPAR antibodies with essentially similar results. FIG. 5B is a graph showing the disruption of uPAR and α5β1-integrin complex with peptides 240-248 and S245A. T-HEp3 cells were surface biotinylated and lysed as described in the Examples. The lysate was precleared with isotype-matched IgG and aliquots containing 0.8 mg protein were incubated with peptides 240-248 and S245A (5 μM and 20 μM) or without peptides (Control, C) for 20 min at 4° C. followed by IP with 5 μg of monoclonal anti-α5β1-integrin (HAS) antibody for 90 min. The immunoprecipitates were analyzed as in FIG. 5A and scanned with NIH Image. […]

T1 sequence (P08648 42-894 limits assumed): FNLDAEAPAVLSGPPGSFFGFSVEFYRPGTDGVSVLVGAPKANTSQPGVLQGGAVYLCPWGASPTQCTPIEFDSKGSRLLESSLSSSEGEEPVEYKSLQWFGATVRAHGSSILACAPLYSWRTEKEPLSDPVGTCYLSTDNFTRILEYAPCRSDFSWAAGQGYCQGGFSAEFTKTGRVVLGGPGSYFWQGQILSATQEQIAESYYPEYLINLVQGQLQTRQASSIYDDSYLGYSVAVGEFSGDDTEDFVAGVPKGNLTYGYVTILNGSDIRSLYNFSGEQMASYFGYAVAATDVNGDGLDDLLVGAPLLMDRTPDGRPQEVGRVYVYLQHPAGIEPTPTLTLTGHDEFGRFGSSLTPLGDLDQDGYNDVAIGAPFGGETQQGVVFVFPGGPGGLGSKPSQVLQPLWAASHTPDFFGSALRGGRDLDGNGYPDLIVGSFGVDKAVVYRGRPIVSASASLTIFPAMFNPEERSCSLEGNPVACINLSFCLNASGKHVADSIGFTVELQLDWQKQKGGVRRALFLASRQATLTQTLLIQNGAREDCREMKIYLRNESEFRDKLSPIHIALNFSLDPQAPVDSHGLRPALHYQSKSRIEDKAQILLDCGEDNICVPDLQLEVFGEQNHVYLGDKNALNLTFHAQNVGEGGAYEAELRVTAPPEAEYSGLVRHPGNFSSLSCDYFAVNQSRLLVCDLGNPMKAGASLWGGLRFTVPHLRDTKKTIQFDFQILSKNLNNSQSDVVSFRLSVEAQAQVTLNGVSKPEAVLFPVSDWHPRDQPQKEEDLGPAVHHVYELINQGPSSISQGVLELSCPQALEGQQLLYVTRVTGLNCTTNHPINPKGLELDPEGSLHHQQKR
T1 sequence (P08648 895-1049 limits assumed): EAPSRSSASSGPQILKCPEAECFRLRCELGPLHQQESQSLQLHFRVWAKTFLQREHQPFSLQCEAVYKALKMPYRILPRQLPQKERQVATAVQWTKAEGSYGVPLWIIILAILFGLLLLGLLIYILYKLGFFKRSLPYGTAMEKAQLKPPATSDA
T1 sequence (P05556 21-798): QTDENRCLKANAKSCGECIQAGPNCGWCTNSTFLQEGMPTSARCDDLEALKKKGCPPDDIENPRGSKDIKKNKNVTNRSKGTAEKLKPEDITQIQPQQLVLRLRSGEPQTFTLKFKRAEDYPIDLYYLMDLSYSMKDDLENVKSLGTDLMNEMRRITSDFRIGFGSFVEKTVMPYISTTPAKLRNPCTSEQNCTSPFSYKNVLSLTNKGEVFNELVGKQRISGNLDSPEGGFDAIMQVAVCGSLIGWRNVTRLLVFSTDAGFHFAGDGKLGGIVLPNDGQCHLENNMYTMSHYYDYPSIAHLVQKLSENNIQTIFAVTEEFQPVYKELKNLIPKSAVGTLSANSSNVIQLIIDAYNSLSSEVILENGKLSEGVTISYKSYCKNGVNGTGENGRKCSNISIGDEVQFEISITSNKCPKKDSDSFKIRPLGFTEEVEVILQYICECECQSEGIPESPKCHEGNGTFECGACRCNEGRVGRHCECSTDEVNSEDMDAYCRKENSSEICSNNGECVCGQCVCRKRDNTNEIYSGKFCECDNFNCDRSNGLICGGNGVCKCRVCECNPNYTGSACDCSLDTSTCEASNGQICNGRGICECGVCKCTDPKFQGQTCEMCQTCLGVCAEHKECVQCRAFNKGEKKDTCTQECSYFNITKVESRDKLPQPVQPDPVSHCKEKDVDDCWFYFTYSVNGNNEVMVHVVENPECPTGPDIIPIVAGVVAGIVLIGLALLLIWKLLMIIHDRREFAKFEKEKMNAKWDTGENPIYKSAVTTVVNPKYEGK

As for “peptide 240-248: synthetic uPAR-derived peptide, domain III residues 240-248: GCATASMCQ (SEQ ID NO:9)”, the “disruption of preformed uPAR/integrin complex” value is listed as “disrupted”.

(Values after patent US20100249184A1, “INDUCTION AND/OR MAINTENANCE OF TUMOR DORMANCY BY DISRUPTION OF UROKINASE PLASMINOGEN ACTIVATOR RECEPTOR-INTEGRIN INTERACTION” (MOUNT SINAI SCHOOL OF MEDICINE, priority 2007, published 2010).)
